In publication PMC6693564, “RGG-motif self-association regulates eIF4G-binding translation repressor protein Scd6” (RNA Biology, 2019):

Experiments:
[1] = target: T1, HisSbp1FLAG (recombinant) (yeast, UniProt P10080 1-294); assay: pull-down; FLAG pull-down of purified Sbp1FLAG with purified Sbp1GFP or Sbp1GFPΔRGG in the presence of RNase A; 450 nM proteins; blots with anti-GFP and anti-FLAG; settings: both partners purified
T1 construct: Sbp1, yeast; also called full-length Sbp1FLAG; source: E. coli XL1-Blue, purified (Ni-NTA)
T1 sequence (looked up): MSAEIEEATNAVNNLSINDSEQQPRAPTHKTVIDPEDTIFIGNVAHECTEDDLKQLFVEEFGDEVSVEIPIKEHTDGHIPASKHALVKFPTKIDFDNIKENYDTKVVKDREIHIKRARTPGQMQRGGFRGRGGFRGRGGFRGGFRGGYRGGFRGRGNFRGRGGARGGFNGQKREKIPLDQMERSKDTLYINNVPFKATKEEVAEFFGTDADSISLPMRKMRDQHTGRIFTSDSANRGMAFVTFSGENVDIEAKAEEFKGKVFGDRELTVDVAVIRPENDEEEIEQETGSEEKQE

[2] = target: T2, GSTScd6 (recombinant) (yeast, UniProt P45978 1-349); assay: pull-down; 450 nM purified proteins with glutathione sepharose beads, 2 h at 4°C, 50mM HEPES pH7, 100mM NaCl, 1mM DTT, 2mM MnCl2, 2mM MgCl2, 1% Triton-X100, 10% glycerol, 0.25mg/ml RNase A, 10mg/ml BSA; GST fusion as bait; anti-FLAG blot; for Figure 5e Scd6FLAG first incubated with Hmt1 with or without SAM; settings: both partners purified
T2 construct: Scd6, yeast; also called full-length GSTScd6; source: E. coli BL21, purified (glutathione sepharose)
T2 sequence (looked up): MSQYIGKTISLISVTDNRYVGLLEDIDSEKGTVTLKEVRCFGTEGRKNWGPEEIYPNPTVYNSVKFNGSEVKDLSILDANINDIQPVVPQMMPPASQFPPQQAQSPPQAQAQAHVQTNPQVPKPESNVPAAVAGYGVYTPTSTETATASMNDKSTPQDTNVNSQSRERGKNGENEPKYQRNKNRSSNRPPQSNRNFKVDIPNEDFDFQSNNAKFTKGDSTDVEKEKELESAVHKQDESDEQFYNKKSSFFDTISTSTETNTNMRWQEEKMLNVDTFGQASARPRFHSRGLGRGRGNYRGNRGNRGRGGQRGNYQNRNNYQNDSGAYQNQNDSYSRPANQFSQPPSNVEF

[3] = target: the molecule itself; assay: SEC; Sephacryl S-200 HR (45 ml, manual), 1 mg protein in 100 µl loaded, 20mM HEPES-KOH pH7.6, 100mM KCl, 10% glycerol; standards 200, 150, 66, 29 kDa

B1: HisSbp1GFP (recombinant) (natural protein, yeast, UniProt P10080 1-294, looked up)
chain: T1 sequence (looked up)
notes: Sbp1, yeast, wild type; source: E. coli XL1-Blue, purified (Ni-NTA)
[1]
  binding result: binds

B2: in vitro methylated Scd6FLAG (natural protein, yeast, UniProt P45978 1-349, looked up)
chain: T2 sequence (looked up)
modifications: arginine methylation by Hmt1 in vitro (stained by mono-methylarginine specific antibody); sites not given
notes: Scd6, yeast; Same protein as m4 after methylation; source: E. coli BL21, purified, then methylated in vitro by incubating with Hmt1 and SAM
[2]
  binding result: binds

B3: HisScd6FLAG (recombinant) (natural protein, yeast, UniProt P45978 1-349, looked up)
chain: T2 sequence (looked up)
notes: Scd6, yeast; predicted molecular mass of the purified protein about 41.5 kDa; also called purified Scd6; source: E. coli BL21, purified (HisTrap HP, HiTrap Heparin HP)
[3]
  stoichiometry N: 2
